Source: patent US20160311887A1 (CAMBRIDGE ENTERPRISE, published 2016)
Read-outs that look alike come from different tables or passages of the source.

Assays:
[1] = target: T1, activated Protein C (APC) (human, UniProt P04070 43-197; P04070 212-461); experiment: ratio of rate constants, APC over thrombin
T1 construct: also called human plasma APC
Description: Standard errors are shown.
(§1) Preliminary second-order rate constants for the inhibition of thrombin and APC by random mutagenesis PCI variants were measured under pseudo first-order conditions using an excess of serpin over protease. Serpin and protease were incubated together for varying lengths of time and the residual activity determined by adding an excess of chromogenic substrate for the protease. Plots of residual protease activity over time gave the observed rate constant kobs. The second-order rate constant, k₂, is the slope of the plot of kobs versus serpin concentration (fitted using a linear regression model). WT and P2KP1′K are shown for comparison. The error shown is the standard error of the slope.

[2] = target: T2, thrombin (UniProt P00734 328-622); experiment: preliminary pseudo-first-order inhibition kinetics, residual chromogenic activity
Description: as §1

[3] = target: T1, activated Protein C (APC); experiment: as above
Description: as §1

[4] = target: T2, thrombin; experiment: pseudo-first-order inhibition kinetics, residual chromogenic activity
[5] = target: T1, activated Protein C (APC); experiment: as above
[6] = target: TF:fVIIa (UniProt P13726 33-295; P08709 61-466, limits assumed); experiment: cell-based or functional assay
[7] = target: T1, activated Protein C (APC); experiment: ratio of rate constants, APC over thrombin; remark: listed apart in the source
[8] = target: T1, activated Protein C (APC); experiment: ratio of rate constants, APC over fXa
[9] = target: T3, fXa (UniProt P00742 41-179; P00742 235-488); experiment: pseudo-first-order inhibition kinetics, residual chromogenic activity (S2222)
T3 construct: also called factor Xa
T3 sequence (P00742 41-179 limits assumed, form in doubt, chain 1 of 2): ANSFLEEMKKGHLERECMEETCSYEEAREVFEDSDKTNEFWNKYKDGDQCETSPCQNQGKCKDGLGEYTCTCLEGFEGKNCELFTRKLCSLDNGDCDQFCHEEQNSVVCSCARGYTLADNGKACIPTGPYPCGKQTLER
T3 sequence (P00742 235-488 limits assumed, form in doubt, chain 2 of 2): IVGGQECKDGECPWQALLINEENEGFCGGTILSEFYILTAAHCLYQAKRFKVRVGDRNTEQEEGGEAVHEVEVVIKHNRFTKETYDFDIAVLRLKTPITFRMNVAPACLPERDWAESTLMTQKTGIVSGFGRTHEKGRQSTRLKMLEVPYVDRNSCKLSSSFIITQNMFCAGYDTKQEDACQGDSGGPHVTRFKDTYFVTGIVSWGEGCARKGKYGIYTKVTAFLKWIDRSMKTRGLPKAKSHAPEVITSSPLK

TF:fVIIa, sequence (P13726 33-295 limits assumed, chain 1 of 2): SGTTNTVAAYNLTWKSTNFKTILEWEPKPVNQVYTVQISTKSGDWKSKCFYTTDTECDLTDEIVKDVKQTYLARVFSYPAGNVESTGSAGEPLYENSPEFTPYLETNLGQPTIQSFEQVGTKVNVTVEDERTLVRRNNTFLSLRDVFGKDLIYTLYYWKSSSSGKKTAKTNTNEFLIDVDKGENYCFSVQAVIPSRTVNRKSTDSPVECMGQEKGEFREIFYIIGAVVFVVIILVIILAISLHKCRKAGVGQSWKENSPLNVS
TF:fVIIa, sequence (P08709 61-466 limits assumed, chain 2 of 2): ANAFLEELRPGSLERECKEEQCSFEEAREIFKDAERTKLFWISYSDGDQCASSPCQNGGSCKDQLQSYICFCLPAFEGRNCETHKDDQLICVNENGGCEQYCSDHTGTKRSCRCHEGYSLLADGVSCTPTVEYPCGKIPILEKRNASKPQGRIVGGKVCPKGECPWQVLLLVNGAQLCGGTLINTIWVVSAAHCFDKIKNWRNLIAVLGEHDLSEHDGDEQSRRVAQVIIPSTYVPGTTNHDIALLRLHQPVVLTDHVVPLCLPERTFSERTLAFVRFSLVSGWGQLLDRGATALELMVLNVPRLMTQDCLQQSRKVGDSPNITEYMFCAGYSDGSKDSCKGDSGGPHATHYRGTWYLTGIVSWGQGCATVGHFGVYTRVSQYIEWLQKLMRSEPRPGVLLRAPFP
T1 sequence (P04070 43-197, chain 1 of 2): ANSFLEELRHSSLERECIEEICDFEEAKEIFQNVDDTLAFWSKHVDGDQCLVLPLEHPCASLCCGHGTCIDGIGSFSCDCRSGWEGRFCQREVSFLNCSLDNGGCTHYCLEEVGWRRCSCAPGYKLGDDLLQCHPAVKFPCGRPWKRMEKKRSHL
T1 sequence (P04070 212-461, chain 2 of 2): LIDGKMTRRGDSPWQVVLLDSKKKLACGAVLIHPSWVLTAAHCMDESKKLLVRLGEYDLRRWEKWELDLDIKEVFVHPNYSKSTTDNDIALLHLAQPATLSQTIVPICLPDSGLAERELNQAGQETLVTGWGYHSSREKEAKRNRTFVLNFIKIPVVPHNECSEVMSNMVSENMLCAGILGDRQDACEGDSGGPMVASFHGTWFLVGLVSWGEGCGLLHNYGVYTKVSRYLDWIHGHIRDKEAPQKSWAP

Row | Binder | inhibition of APC/thrombin [1] | second-order rate constant of inhibition [2] | second-order rate constant of inhibition [3] | second-order rate constant of inhibition [4] | second-order rate constant of inhibition [5] | PT (s), 5 µM serpin [6] | inhibition of APC/thrombin [7] | inhibition of APC/fXa [8] | second-order rate constant of inhibition [9]
1 | A22 2.B10 PCI (P4SP2LP1′K) (other, As A22 WT PCI) APSSRRDFTFDLYRALASAAPSQNIFFSPVSISMSLAMLSLGAGSSTKMQILEGLGLNLQKSSEKELHRGFQQLLQELNQPRDGFQLSLGNALFTDLVVDLQDTFVSAMKTLYLADTFPTNFRDSAGAMKQINDYVAKQTKGKIVDLLKNLDSNAVVIMVNYIFFKAKWETSFNHKGTQEQDFYVTSETVVRVPMMSREDQYHYLLDRNLSCRVVGVPYQGNATALFILPSEGKMQQVENGLSEKTLRKWLKMFKKRQLELYLPKFSIEGSYQLEKVLPSLGISNVFTSHADLSGISNHSNIQVSEMVHKAVVEVDESGTRAAAATGTISTLRKARLNSQRLVFNRPFLMFIVDNNILFLGKVNRP | 26.9 fold | 16 M⁻¹ s⁻¹ | 430 M⁻¹ s⁻¹ | – | – | – | – | – | –
2 | FL α1AT Pitts C232S P2KP1′N (other, E. coli, purified; also called 3.B2; 2.H5) SDPQGDAAQKTDTSHHDQDHPTFNKITPNLAEFAFSLYRQLAHQSNSTNIFFSPVSIATAFAMLSLGTKADTHDEILEGLNFNLTEIPEAQIHEGFQELLRTLNQPDSQLQLTTGNGLFLSEGLKLVDKFLEDVKKLYHSEAFTVNFGDTEEAKKQINDYVEKGTQGKIVDLVKELDRDTVFALVNYIFFKGKWERPFEVKDTEEEDFHVDQVTTVKVPMMKRLGMFNIQHSKKLSSWVLLMKYLGNATAIFFLPDEGKLQHLENELTHDIITKFLENEDRRSASLHLPKLSITGTYDLKSVLGQLGITKVFSNGADLSGVTEEAPLKLSKAVHKAVLTIDEKGTEAAGAMFLEAIKRNIPPEVKFNKPFVFLMIEQNTKSPLFMGKVVNPTQK | – | – | – | 15 M⁻¹ s⁻¹ | 37800 M⁻¹ s⁻¹ | 27.8 s | 2520 fold | 41.5 fold | 910 M⁻¹ s⁻¹
3 | FL α1AT Pitts C232S P2TP1′N (other, E. coli, purified; also called 4.G9) SDPQGDAAQKTDTSHHDQDHPTFNKITPNLAEFAFSLYRQLAHQSNSTNIFFSPVSIATAFAMLSLGTKADTHDEILEGLNFNLTEIPEAQIHEGFQELLRTLNQPDSQLQLTTGNGLFLSEGLKLVDKFLEDVKKLYHSEAFTVNFGDTEEAKKQINDYVEKGTQGKIVDLVKELDRDTVFALVNYIFFKGKWERPFEVKDTEEEDFHVDQVTTVKVPMMKRLGMFNIQHSKKLSSWVLLMKYLGNATAIFFLPDEGKLQHLENELTHDIITKFLENEDRRSASLHLPKLSITGTYDLKSVLGQLGITKVFSNGADLSGVTEEAPLKLSKAVHKAVLTIDEKGTEAAGAMFLEAITRNIPPEVKFNKPFVFLMIEQNTKSPLFMGKVVNPTQK | – | – | – | 270 M⁻¹ s⁻¹ | 62400 M⁻¹ s⁻¹ | – | 231 fold | – | –
4 | FL α1AT Pitts C232S P1′R (other, E. coli, purified; also called P1′.A11) SDPQGDAAQKTDTSHHDQDHPTFNKITPNLAEFAFSLYRQLAHQSNSTNIFFSPVSIATAFAMLSLGTKADTHDEILEGLNFNLTEIPEAQIHEGFQELLRTLNQPDSQLQLTTGNGLFLSEGLKLVDKFLEDVKKLYHSEAFTVNFGDTEEAKKQINDYVEKGTQGKIVDLVKELDRDTVFALVNYIFFKGKWERPFEVKDTEEEDFHVDQVTTVKVPMMKRLGMFNIQHSKKLSSWVLLMKYLGNATAIFFLPDEGKLQHLENELTHDIITKFLENEDRRSASLHLPKLSITGTYDLKSVLGQLGITKVFSNGADLSGVTEEAPLKLSKAVHKAVLTIDEKGTEAAGAMFLEAIPRRIPPEVKFNKPFVFLMIEQNTKSPLFMGKVVNPTQK | – | – | – | 680 M⁻¹ s⁻¹ | 132000 M⁻¹ s⁻¹ | – | 194 fold | – | –
5 | FL α1AT Pitts C232S P2KP1′H (other, E. coli, purified; also called 1.A12) SDPQGDAAQKTDTSHHDQDHPTFNKITPNLAEFAFSLYRQLAHQSNSTNIFFSPVSIATAFAMLSLGTKADTHDEILEGLNFNLTEIPEAQIHEGFQELLRTLNQPDSQLQLTTGNGLFLSEGLKLVDKFLEDVKKLYHSEAFTVNFGDTEEAKKQINDYVEKGTQGKIVDLVKELDRDTVFALVNYIFFKGKWERPFEVKDTEEEDFHVDQVTTVKVPMMKRLGMFNIQHSKKLSSWVLLMKYLGNATAIFFLPDEGKLQHLENELTHDIITKFLENEDRRSASLHLPKLSITGTYDLKSVLGQLGITKVFSNGADLSGVTEEAPLKLSKAVHKAVLTIDEKGTEAAGAMFLEAIKRHIPPEVKFNKPFVFLMIEQNTKSPLFMGKVVNPTQK | – | – | – | – | 28800 M⁻¹ s⁻¹ | 27.4 s | – | 46.5 fold | 620 M⁻¹ s⁻¹
6 | FL α1AT Pitts C232S P1′E (other, E. coli, purified; also called P1′.H8; P1′.F10) SDPQGDAAQKTDTSHHDQDHPTFNKITPNLAEFAFSLYRQLAHQSNSTNIFFSPVSIATAFAMLSLGTKADTHDEILEGLNFNLTEIPEAQIHEGFQELLRTLNQPDSQLQLTTGNGLFLSEGLKLVDKFLEDVKKLYHSEAFTVNFGDTEEAKKQINDYVEKGTQGKIVDLVKELDRDTVFALVNYIFFKGKWERPFEVKDTEEEDFHVDQVTTVKVPMMKRLGMFNIQHSKKLSSWVLLMKYLGNATAIFFLPDEGKLQHLENELTHDIITKFLENEDRRSASLHLPKLSITGTYDLKSVLGQLGITKVFSNGADLSGVTEEAPLKLSKAVHKAVLTIDEKGTEAAGAMFLEAIPREIPPEVKFNKPFVFLMIEQNTKSPLFMGKVVNPTQK | – | – | – | 150 M⁻¹ s⁻¹ | 2990 M⁻¹ s⁻¹ | – | 19.9 fold | – | –

Other lines, results leading:

Row | inhibition of APC/thrombin [1] | second-order rate constant of inhibition [2] | second-order rate constant of inhibition [3] | second-order rate constant of inhibition [4] | second-order rate constant of inhibition [5] | PT (s), 5 µM serpin [6] | inhibition of APC/thrombin [7] | inhibition of APC/fXa [8] | second-order rate constant of inhibition [9] | Binder
7 | – | – | – | 42 M⁻¹ s⁻¹ | 61100 M⁻¹ s⁻¹ | 27.8 s | 1460 fold | 12.8 fold | 4790 M⁻¹ s⁻¹ | FL α1AT Pitts C232S P2R (other, E. coli, purified; also called P2.F10; P2.G8) SDPQGDAAQKTDTSHHDQDHPTFNKITPNLAEFAFSLYRQLAHQSNSTNIFFSPVSIATAFAMLSLGTKADTHDEILEGLNFNLTEIPEAQIHEGFQELLRTLNQPDSQLQLTTGNGLFLSEGLKLVDKFLEDVKKLYHSEAFTVNFGDTEEAKKQINDYVEKGTQGKIVDLVKELDRDTVFALVNYIFFKGKWERPFEVKDTEEEDFHVDQVTTVKVPMMKRLGMFNIQHSKKLSSWVLLMKYLGNATAIFFLPDEGKLQHLENELTHDIITKFLENEDRRSASLHLPKLSITGTYDLKSVLGQLGITKVFSNGADLSGVTEEAPLKLSKAVHKAVLTIDEKGTEAAGAMFLEAIRRSIPPEVKFNKPFVFLMIEQNTKSPLFMGKVVNPTQK
8 | – | – | – | 34 M⁻¹ s⁻¹ | 24600 M⁻¹ s⁻¹ | – | 722 fold | – | – | FL α1AT Pitts C232S P2RP1′C (other, E. coli, purified; also called 1.B11) SDPQGDAAQKTDTSHHDQDHPTFNKITPNLAEFAFSLYRQLAHQSNSTNIFFSPVSIATAFAMLSLGTKADTHDEILEGLNFNLTEIPEAQIHEGFQELLRTLNQPDSQLQLTTGNGLFLSEGLKLVDKFLEDVKKLYHSEAFTVNFGDTEEAKKQINDYVEKGTQGKIVDLVKELDRDTVFALVNYIFFKGKWERPFEVKDTEEEDFHVDQVTTVKVPMMKRLGMFNIQHSKKLSSWVLLMKYLGNATAIFFLPDEGKLQHLENELTHDIITKFLENEDRRSASLHLPKLSITGTYDLKSVLGQLGITKVFSNGADLSGVTEEAPLKLSKAVHKAVLTIDEKGTEAAGAMFLEAIRRCIPPEVKFNKPFVFLMIEQNTKSPLFMGKVVNPTQK
9 | – | – | – | 3.8 M⁻¹ s⁻¹ | 33400 M⁻¹ s⁻¹ | 27.9 s | 8790 fold | 30.9 fold | 1080 M⁻¹ s⁻¹ | FL α1AT Pitts C232S P2QP1′K (other, E. coli, purified; also called 4.G4) SDPQGDAAQKTDTSHHDQDHPTFNKITPNLAEFAFSLYRQLAHQSNSTNIFFSPVSIATAFAMLSLGTKADTHDEILEGLNFNLTEIPEAQIHEGFQELLRTLNQPDSQLQLTTGNGLFLSEGLKLVDKFLEDVKKLYHSEAFTVNFGDTEEAKKQINDYVEKGTQGKIVDLVKELDRDTVFALVNYIFFKGKWERPFEVKDTEEEDFHVDQVTTVKVPMMKRLGMFNIQHSKKLSSWVLLMKYLGNATAIFFLPDEGKLQHLENELTHDIITKFLENEDRRSASLHLPKLSITGTYDLKSVLGQLGITKVFSNGADLSGVTEEAPLKLSKAVHKAVLTIDEKGTEAAGAMFLEAIQRKIPPEVKFNKPFVFLMIEQNTKSPLFMGKVVNPTQK
10 | – | – | – | 23 M⁻¹ s⁻¹ | 5700 M⁻¹ s⁻¹ | – | 248 fold | – | – | FL α1AT Pitts C232S P2TP1′Y (other, E. coli, purified; also called 3.A10) SDPQGDAAQKTDTSHHDQDHPTFNKITPNLAEFAFSLYRQLAHQSNSTNIFFSPVSIATAFAMLSLGTKADTHDEILEGLNFNLTEIPEAQIHEGFQELLRTLNQPDSQLQLTTGNGLFLSEGLKLVDKFLEDVKKLYHSEAFTVNFGDTEEAKKQINDYVEKGTQGKIVDLVKELDRDTVFALVNYIFFKGKWERPFEVKDTEEEDFHVDQVTTVKVPMMKRLGMFNIQHSKKLSSWVLLMKYLGNATAIFFLPDEGKLQHLENELTHDIITKFLENEDRRSASLHLPKLSITGTYDLKSVLGQLGITKVFSNGADLSGVTEEAPLKLSKAVHKAVLTIDEKGTEAAGAMFLEAITRYIPPEVKFNKPFVFLMIEQNTKSPLFMGKVVNPTQK
